Test [1] has as its target T1, Full-length Cyno 4-1BB (cynomolgus monkey, UniProt Q07011 24-255 (human entry)).
T1 construct: on Jurkat or CHO cells; also called FOB006; cynomolgus 4-1BB
T1 chain: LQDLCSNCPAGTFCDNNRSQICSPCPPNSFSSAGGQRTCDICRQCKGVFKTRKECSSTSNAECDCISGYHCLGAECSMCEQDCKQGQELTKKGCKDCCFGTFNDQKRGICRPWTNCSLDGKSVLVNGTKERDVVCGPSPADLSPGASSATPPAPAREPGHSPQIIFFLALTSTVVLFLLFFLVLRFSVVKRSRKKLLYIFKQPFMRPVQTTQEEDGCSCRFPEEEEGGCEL
The test is described as follows: flow cytometry on Jurkat cells transfected with cynomolgus 4-1BB, goat anti-human Fc secondary antibody, MFI (Mean). (A flow cytometer gives signals particle by particle.)

Test [2] addresses T2, Cyno OX40-AFH (cynomolgus monkey).
T2 construct: entry includes the tags; also called OXF005; cyno OX40 ECD
T2 chain: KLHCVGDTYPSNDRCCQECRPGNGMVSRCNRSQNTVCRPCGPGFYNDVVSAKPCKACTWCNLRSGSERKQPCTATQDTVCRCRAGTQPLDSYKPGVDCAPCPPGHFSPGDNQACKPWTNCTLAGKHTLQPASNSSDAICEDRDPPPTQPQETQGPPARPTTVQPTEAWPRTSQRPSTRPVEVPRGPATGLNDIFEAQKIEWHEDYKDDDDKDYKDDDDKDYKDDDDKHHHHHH
The experiment in a line: SPR (Biacore 8K), construct captured, monovalent ECD.

The target in test [3] is T3, Human OX40 ECD-AFH (human).
T3 construct: ECD'; entry includes the C-terminal tags; also called OXF003; Human OX40 ECD-avi-flag-his
T3 chain: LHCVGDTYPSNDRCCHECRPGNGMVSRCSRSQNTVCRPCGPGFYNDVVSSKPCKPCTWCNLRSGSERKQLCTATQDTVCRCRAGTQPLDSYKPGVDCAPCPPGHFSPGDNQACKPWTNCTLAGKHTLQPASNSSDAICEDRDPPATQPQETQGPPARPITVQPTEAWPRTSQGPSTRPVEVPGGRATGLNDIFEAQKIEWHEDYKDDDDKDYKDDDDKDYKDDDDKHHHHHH
The test is described as above.

The target of test [4] is T4, Human 4-1BB ECD-AFH (human).
T4 construct: entry includes the tags; also called FOB003; HUMAN CD137 ECD-AVI-FLAG-HIS
The test is described as above.

The target in test [5] is Full-length Human 4-1BB (human, UniProt Q07011 24-255). The test is described as follows: cell-based or functional assay.
The target in test [6] is T5, Full-length Human OX40 (human, UniProt P43489 29-277).
T5 sequence: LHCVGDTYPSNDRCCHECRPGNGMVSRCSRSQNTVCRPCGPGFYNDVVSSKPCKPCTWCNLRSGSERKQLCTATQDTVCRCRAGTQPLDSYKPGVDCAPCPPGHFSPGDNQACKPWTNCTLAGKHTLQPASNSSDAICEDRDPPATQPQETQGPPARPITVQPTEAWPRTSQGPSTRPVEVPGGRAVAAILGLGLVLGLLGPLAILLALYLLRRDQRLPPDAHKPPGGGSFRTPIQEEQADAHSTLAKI
The experiment in a line: cell-based or functional assay.

The target of test [7] is T3, Human OX40 ECD-AFH. The experiment in a line: SPR, construct captured, monomeric ECD as analyte. Background: Surface plasmon resonance follows binding to a sensor surface in real time, without labels.
In test [8] the target is T4, Human 4-1BB ECD-AFH. The test is described as follows: SPR, construct captured, monomeric ECD as analyte.
Target sequence in this assay (chain, as listed by the source limits assumed): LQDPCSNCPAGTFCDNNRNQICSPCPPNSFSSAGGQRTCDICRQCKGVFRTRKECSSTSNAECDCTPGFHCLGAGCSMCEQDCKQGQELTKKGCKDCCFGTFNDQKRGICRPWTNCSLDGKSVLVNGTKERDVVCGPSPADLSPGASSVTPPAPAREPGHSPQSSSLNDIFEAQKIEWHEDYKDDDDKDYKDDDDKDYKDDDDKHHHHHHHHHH

In general, EC50 (read off the curve) refers to the concentration giving half of the maximal effect. High values mean a less potent agent, low ones a more potent agent. The term Kd denotes the constant that tells how readily two partners part at equilibrium. Read a low Kd as higher affinity. As usually defined, the koff is a measure of how fast the partners let go of each other. A higher koff goes with a short-lived complex. One may read the kon as a measure of how fast the partners come together. The low end stands for slower complex formation, the high end for faster complex formation.

Sequence of Full-length Human 4-1BB (Q07011 24-255): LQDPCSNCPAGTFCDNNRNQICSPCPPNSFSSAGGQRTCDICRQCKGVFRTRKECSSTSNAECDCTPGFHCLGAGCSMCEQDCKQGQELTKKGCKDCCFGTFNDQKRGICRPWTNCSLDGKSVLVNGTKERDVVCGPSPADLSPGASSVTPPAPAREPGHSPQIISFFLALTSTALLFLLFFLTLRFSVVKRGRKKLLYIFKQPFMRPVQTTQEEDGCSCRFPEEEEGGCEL

B1: FXX01066 (bispecific antibody)
chain: EVQLVQSGAEVKKPGASVKVSCKASGYTFTSYWMNWVRQAPGQGLEWMGNIYPSGGSTNYAQKFQGRVTMTVDTSTSTVYMELSSLRSEDTAVYYCASFSDGYYAYAMDYWGQGTLVTVSSGGGGSGGGGSGGGGSGGGGSEIVMTQSPATLSLSPGERATLSCRASQSVSSYLNWYQQKPGQAPRLLIYYASRRHTGIPARFSGSGSGTDFTLTISSLQPEDFAVYYCQQGYNLPYTFGQGTKVEIKEPKSSDKTHTCPPCPAPPAAAPSVFLFPPKPKDTLMISRTPEVTCVVVDVSHEDPEVKFNWYVDGVEVHNAKTKPREEQYNSTYRVVSVLTVLHQDWLNGKEYKCAVSNKALPAPIEKTISKAKGQPREPQVYTLPPSRDELTKNQVSLTCLVKGFYPSDIAVEWESNGQPENNYKTTPPVLDSDGSFFLYSKLTVDKSRWQQGNVFSCSVMHEALHNHYTQKSLSLSPGGGGSPSSYVLTQPPSVSVAPGQTARITCGGNNIGSKSVNWFQQKPGQAPVLVVYDDSGRPSGIPERFSGSTSGNTATLTISRVEAGDEADYYCQVWDSSSDHVVFGGGTKLTVLGGGGSGGGGSGGGGSGGGGSQVQLVESGGGVVQPGRSLRLSCAASGFTLSYYGMHWVRQAPGKGLEWVAAISHDGSDKYYADSVKGRFTISRDNSKNTLYLQMNSLRAEDTAVYYCSNDQFDPWGQGTLVTVSSR
notes: ADAPTIR scFv-Fc-scFv, anti-4-1BB (VH-VL) N-terminal, anti-OX40 C-terminal, PAA (del) Fc; also called FX01066
As to B1, in test [1], the “EC50 (read off the curve)” value is around 0.3 nM. Moreover, in test [2], the Kd is below 1 nM, the koff was determined as 0.00019 s⁻¹ and the kon amounted to 1.5e+06 M⁻¹ s⁻¹. Also, in test [3], the Kd is below 1 nM, the dissociation rate constant (koff) stood at 0.00027 s⁻¹ and the kon amounted to 1.1e+06 M⁻¹ s⁻¹. In test [4], this molecule displayed a dissociation constant (Kd) of 16 nM, a koff of 0.0043 s⁻¹ and a kon of 270000 M⁻¹ s⁻¹. In test [5], the “4-1BB Reporter Assay EC50” value amounted to 0.017 nM and the “4-1BB Reporter Assay Max induction” value is 1.37e+06. In test [6], the “OX40 Reporter Assay EC50” value is 0.021 nM and the “OX40 Reporter Assay Max induction” value was determined as 5.86e+06. In test [7], the Kd worked out at 0.5 nM, the koff came out at 0.00031 s⁻¹ and the on-rate (kon) turned out to be 680000 M⁻¹ s⁻¹. In test [8], this molecule returned a Kd of 15 nM, an off-rate (koff) of 0.0045 s⁻¹ and a kon of 290000 M⁻¹ s⁻¹.

B2: FXX01119 (bispecific antibody)
chain: EVQLVQSGAEVKKPGASVKVSCKASGYTFTSYWMNWVRQAPGQGLEWMGNIYPSGGSTNYAQKFQGRVTMTVDTSTSTVYMELSSLRSEDTAVYYCASFSDGYYAYAMDYWGQGTLVTVSSGGGGSGGGGSGGGGSGGGGSEIVMTQSPATLSLSPGERATLSCRASQSVSSYLNWYQQKPGQAPRLLIYYASRRHTGIPARFSGSGSGTDFTLTISSLQPEDFAVYYCQQGYNLPYTFGQGTKVEIKEPKSSDKTHTCPPCPAPPAAAPSVFLFPPKPKDTLMISRTPEVTCVVVDVSHEDPEVKFNWYVDGVEVHNAKTKPREEQYNSTYRVVSVLTVLHQDWLNGKEYKCAVSNKALPAPIEKTISKAKGQPREPQVYTLPPSRDELTKNQVSLTCLVKGFYPSDIAVEWESNGQPENNYKTTPPVLDSDGSFFLYSKLTVDKSRWQQGNVFSCSVMHEALHNHYTQKSLSLSPGGGGSPSSYVLTQPPSVSVAPGKTARITCGGNNIGSKSVNWFQQKPGQAPVLVVYDDSGRPSGVPNRFSGSTSGNTATLTISRVEAGDEADYYCQVWDSSSDHVVFGGGTKLTVLGGGGSGGGGSGGGGSGGGGSQVQLVESGGGVVQPGRSLRLSCAASGFTLSYYGMHWVRQAPGKGLEWVAAISHDGSDKYYADSVKGRFTISRDNSKNRLYLQMNSLRAEDTAVYYCSNDQFDPWGQGTLVTVSSR
notes: ADAPTIR anti-4-1BB x anti-OX40, pI variant; PAA (del) Fc
B2: in test [2], the affinity, expressed as Kd, was 0.2 nM; the koff is 0.00023 s⁻¹; the kon was determined as 1e+06 M⁻¹ s⁻¹. In test [3], this molecule returned a Kd of 0.3 nM, a koff of 0.00031 s⁻¹ and a kon of 920000 M⁻¹ s⁻¹. In test [4], this molecule registered a Kd of 18 nM, a koff of 0.0046 s⁻¹ and a kon of 260000 M⁻¹ s⁻¹. Further, in test [5], the “4-1BB Reporter Assay EC50” value was 0.011 nM and the “4-1BB Reporter Assay Max induction” value amounted to 1.37e+06. Also, in test [6], the “OX40 Reporter Assay EC50” value was 0.012 nM and the “OX40 Reporter Assay Max induction” value came to 6.07e+06.

B3: FXX01115 (bispecific antibody)
chain: EVQLVQSGAEVKKPGASVKVSCKASGYTFTSYWMNWVRQAPGQGLEWMGNIYPSGGSTNYAQKFQGRVTMTVDTSTSTVYMELSSLRSEDTAVYYCASFSDGYYAYAMDYWGQGTLVTVSSGGGGSGGGGSGGGGSGGGGSEIVMTQSPATLSLSPGERATLSCRASQSVSSYLNWYQQKPGQAPRLLIYYASRRHTGIPARFSGSGSGTDFTLTISSLQPEDFAVYYCQQGYNLPYTFGQGTKVEIKEPKSSDKTHTCPPCPAPPAAAPSVFLFPPKPKDTLMISRTPEVTCVVVDVSHEDPEVKFNWYVDGVEVHNAKTKPREEQYNSTYRVVSVLTVLHQDWLNGKEYKCAVSNKALPAPIEKTISKAKGQPREPQVYTLPPSRDELTKNQVSLTCLVKGFYPSDIAVEWESNGQPENNYKTTPPVLDSDGSFFLYSKLTVDKSRWQQGNVFSCSVMHEALHNHYTQKSLSLSPGGGGSPSSYVLTQPPSVSVAPGQTARITCGGNNIGSKSVNWFQQKPGQAPVLVVYDDSGRPSGVPNRFSGSTSGNTATLTISRVEAGDEADYYCQVWDSSSDHVVFGGGTKLTVLGGGGSGGGGSGGGGSGGGGSQVQLVESGGGVVQPGRSLRLSCAASGFTLSYYGMHWVRQAPGKGLEWVAAISHDGSDKYYADSVKGRFTISRDNSKNRLYLQMNSLRAEDTAVYYCSNDQFDPWGQGTLVTVSSR
notes: as for B2
In test [2], B3 displayed a dissociation constant (Kd) below 1 nM, a dissociation rate constant (koff) of 0.00021 s⁻¹ and an on-rate (kon) of 1.1e+06 M⁻¹ s⁻¹. In test [3], this molecule had a Kd below 1 nM, a koff of 0.0003 s⁻¹ and a kon of 980000 M⁻¹ s⁻¹. In test [4], this molecule came in with a Kd of 16 nM, a koff of 0.0041 s⁻¹ and an on-rate constant (kon) of 260000 M⁻¹ s⁻¹. Also, in test [5], the “4-1BB Reporter Assay EC50” value worked out at 0.018 nM and the “4-1BB Reporter Assay Max induction” value worked out at 1.36e+06. Besides, in test [6], the “OX40 Reporter Assay EC50” value stood at 0.019 nM and the “OX40 Reporter Assay Max induction” value came to 6.29e+06.

B4: FXX01111 (bispecific antibody)
chain: EVQLVQSGAEVKKPGASVKVSCKASGYTFTSYWMNWVRQAPGQGLEWMGNIYPSGGSTNYAQKFQGRVTMTVDTSTSTVYMELSSLRSEDTAVYYCASFSDGYYAYAMDYWGQGTLVTVSSGGGGSGGGGSGGGGSGGGGSEIVMTQSPATLSLSPGERATLSCRASQSVSSYLNWYQQKPGQAPRLLIYYASRRHTGIPARFSGSGSGTDFTLTISSLQPEDFAVYYCQQGYNLPYTFGQGTKVEIKEPKSSDKTHTCPPCPAPPAAAPSVFLFPPKPKDTLMISRTPEVTCVVVDVSHEDPEVKFNWYVDGVEVHNAKTKPREEQYNSTYRVVSVLTVLHQDWLNGKEYKCAVSNKALPAPIEKTISKAKGQPREPQVYTLPPSRDELTKNQVSLTCLVKGFYPSDIAVEWESNGQPENNYKTTPPVLDSDGSFFLYSKLTVDKSRWQQGNVFSCSVMHEALHNHYTQKSLSLSPGGGGSPSSYVLTQPPSVSVAPGQTARITCGGNNIGSKSVNWFQQKPGQAPVLVVYDDSGRPSGVPNRFSGSTSGNTATLTISRVEAGDEADYYCQVWDSSSDHVVFGGGTKLTVLGGGGSGGGGSGGGGSGGGGSQVQLVESGGGVVQPGRSLRLSCAASGFTLSYYGMHWVRQAPGKGLEWVAAISHDGSDKYYADSVKGRFTISRDNSKNTLYLQMNSLRAEDTAVYYCSNDQFDPWGQGTLVTVSSR
notes: as for B2
In test [2], B4 gave a Kd below 1 nM, a koff of 0.00029 s⁻¹ and an on-rate (kon) of 1.1e+06 M⁻¹ s⁻¹. Besides, in test [3], the Kd was below 1 nM, the koff was found to be 0.00038 s⁻¹ and the on-rate constant (kon) was 930000 M⁻¹ s⁻¹. In addition, in test [4], the Kd came out at 17 nM, the koff is 0.0045 s⁻¹ and the kon amounted to 270000 M⁻¹ s⁻¹. Further, in test [5], the “4-1BB Reporter Assay EC50” value was 0.019 nM and the “4-1BB Reporter Assay Max induction” value was 1.43e+06. For the same molecule, in test [6], the “OX40 Reporter Assay EC50” value worked out at 0.017 nM and the “OX40 Reporter Assay Max induction” value came out at 6.09e+06.

The values above are taken from patent publication US20220242962A1 (APTEVO RESEARCH AND DEVELOPMENT, published 2022).
